Source: the supplement of paper PMC9170038

What follows are sequences tested on K4 kissing-loop RNA reporter (assay: apparent KD of K4 kissing-loop reporter; higher = weaker reporter binding). Settings: Eterna round: R107; input ligand: none.
Experimental: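 RNA-MaP round R107: designed RNA switches with theophylline, tryptophan, arginine or FMN aptamers are transcribed on-chip within common flanks. They are titrated with a labelled K4 kissing-loop RNA reporter in RNA-MaP buffer (100 mM Tris pH 7.5, 80 mM KCl, 4 mM MgCl2), without ligand or with the indicated ligand. Median apparent KD per design.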
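Also: bound reporter read as fluorescence of individual clusters on recovered sequencing chips by microscopy, with normalized cluster intensities fitted with a binding model.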

Going from “UGGGUGUAGUGAUGUUAUAUAGAGAGUGAUACCAGUUUAGAGAAGAACCCUUGGCAGCAUAGAAGAGUAUCAUUGGAGAAGAAUG [ExTheophyl.As]” to “GCAUCCUAGUCGGCCGCCACUGACAUGAGUGAUGUUCAUGUUCGUCAGUGAUGUUGACGUUGUUACAGGACCGGGACUAGGAUGC [KL-SSTryp-B8 Brourdwalk4 #Double KL]”, the “apparent KD of K4 kissing-loop reporter” value falls from 0.422 µM to 0.165 µM (2.6-fold).

First: AGAGUUAUAUGAGGAUAUGGGAUAGUAAAUGAGUGAGUUAUAGUGUAGUUUGUUUAGUGAUGUUAUUUAGAAGGCGUGAGUGAUG [dgnnmullin]
Second: UGUCAUUGGUCGGCCGCCACUAGGACCGGGUAUAGCCUAGUGAUGUUAGUAAGUACGGCCGCCACUAGGACCGGGACCGAUGACU [KL-SSTryp-B21 #DoubleAptamer]
The “apparent KD of K4 kissing-loop reporter” value of the first is 5.9-fold lower: 0.1 µM for the first, 0.591 µM for the second.

“UUAGGAGUGGAAGGAUAUCCUGGUGUGGGUGAUGUUAGUGAUGUUGAAAGUGCAGUGAUGUUGUGCGGAGAAGGUCCGGUGUUGA [BDazzled - #8 - Exc. FMN B]” and “AGGAGUGAUGUUCCUACAUACACGGUCCGACGAGGACCGGUACGGCCGCCACUCGCGUCCCAGUGAUGUUGGGAUUUGGCGUACG [Exclusion Tryptophan A GF 17]” are within 1.5-fold of each other in “apparent KD of K4 kissing-loop reporter” value: 0.176 µM for the first, 0.155 µM for the second.

Going from “UAAUCUAACGAGAGUGAUGUUCUCGUCACAGAGGAUAUACGAUUUAGUAGAAGGCUGUUGGAUUCGCUUAAUGAUGACUAGAUUA [FMN A SS t1]” to “CGUUCAUCCUAGGCGUGAGUGAUGUUUACCCGAGGACCGGUACGGCCGCCACUCGUAUGGCGAGAGUUUAGCCAUUUCCAAUAUA [theeternabot_exclusion_KL_Trp_A_17]”, the “apparent KD of K4 kissing-loop reporter” value rises from 0.223 µM to 0.503 µM (2.3-fold).

For “UGGAGUUGACGAAAAGUCAACUCCUGGGAAGGAGCGGACGAAAGUCCAGGUAGGUCGCCCACUACCAGUGAUGUUGGUACCUAAA”, the “apparent KD of K4 kissing-loop reporter” value was 0.257 µM.

Same assay, conditions: Eterna round: R107; input ligand: theophylline 20 uM

“CCAGGACGAUGAGGAUGAUGAAUUACUGAAGGAGCGCAUAUGGUUGCAGGUAGGUCGCGGUGAACAAGUAUAGUGAUGUUAUACC [SSArgA.U]” and “AAUAAUUUCAGAGGAUAUGCUUUAUUAUGAUUUUUAAAUAAUAAAUGCAGUGAUGUUGCUUAUUAUGCAGAAGGCUGAUUUAUAA [JR_SSFMNB_Sub015]” are within 1.5-fold of each other in “apparent KD of K4 kissing-loop reporter” value: 0.515 µM for the first, 0.721 µM for the second.

Going from “AAUUUAUUAUCUGAUACCAGACUUUAUCUUGUUUAUAAGUCAAGUGAUGUUUGACUAUUAGUCCCUUGGCAGCAGUAUUUUUUAA [JR_Nu_SSTheophyB_Sub025]” to “AAGCAGUCACUCGAAUCCAUCGAAGAUGGGCGAGGACCGGUACGGCCGCCACUCGGAGUGAUGUUCCAAAGACUGCAAAAUAAAA”, the “apparent KD of K4 kissing-loop reporter” value rises from 0.187 µM to 0.55 µM (2.9-fold).

First: GCUAUCUGAGCCCAGUGAUGUUGAGUGCUGAAGGAUAUGCGAUAGAGCAGAAGGUCAAGAACAUUGUUCGAUUAUCAAAACAAGU [theeternabot_exclusion_KL_FMN_A_35]
Second: AACGUUUUGAGAAGGAGCGCGAUAAGCAGUGAUGUUGCUAAAAUUCUAUUUCAAUUUAAUACGCAGGUAGGUCGCUCAAUACGUA [JR_SSArginiB_Sub020]
The “apparent KD of K4 kissing-loop reporter” value of the first is 2.3-fold higher: 0.356 µM for the first, 0.156 µM for the second.

First: AAGCAGUCUCUUGUAACCAUCGAAGAUGGACGAGGACCGGUACGGCCGCCACUCGGAGUGAUGUUCCGAAGACUGCAAAAUAAAA [MatMod 15 - Jieux - Exclusion - Tryptophan A]
Second: UUUAUAUUGUCGGCCGCCACUGGAUCAAUAUUUGUAUGAUCUAGUUCAAAGUGAUGUUUUGAGUCCAGGACCGGGACAUUUGUUA [JR_ExcTryptoB_Sub005]
The “apparent KD of K4 kissing-loop reporter” value of the first is 2.3-fold higher: 1.28 µM for the first, 0.558 µM for the second.

Compared with “UUGUAUACUUUUGUGUGCGAUGUGUAGCCGCGAGGACCGGUACGGCCGCCACUCGCUGAGAGUGAUGUUCUCUGGGCUAUAUAUC [Skye_SS_TA3]”, “UGGGUGUAGUGAUGUUAUAUAGAGAGUGAUACCAGUUUAGAGAAGAACCCUUGGCAGCAUAGAAGAGUAUCAUUGGAGAAGAAUG [ExTheophyl.As]” is 2.1-fold lower in “apparent KD of K4 kissing-loop reporter” value: 0.794 µM for the first, 0.378 µM for the second.

“GCAUCCUAGUCGGCCGCCACUGACAUGAGUGAUGUUCAUGUUCGUCAGUGAUGUUGACGUUGUUACAGGACCGGGACUAGGAUGC [KL-SSTryp-B8 Brourdwalk4 #Double KL]” and “AGAGUUAUAUGAGGAUAUGGGAUAGUAAAUGAGUGAGUUAUAGUGUAGUUUGUUUAGUGAUGUUAUUUAGAAGGCGUGAGUGAUG [dgnnmullin]” are within 1.5-fold of each other in “apparent KD of K4 kissing-loop reporter” value: 0.15 µM for the first, 0.113 µM for the second.

Compared with “UGUCAUUGGUCGGCCGCCACUAGGACCGGGUAUAGCCUAGUGAUGUUAGUAAGUACGGCCGCCACUAGGACCGGGACCGAUGACU [KL-SSTryp-B21 #DoubleAptamer]”, “UUAGGAGUGGAAGGAUAUCCUGGUGUGGGUGAUGUUAGUGAUGUUGAAAGUGCAGUGAUGUUGUGCGGAGAAGGUCCGGUGUUGA [BDazzled - #8 - Exc. FMN B]” is 2.8-fold lower in “apparent KD of K4 kissing-loop reporter” value: 0.674 µM for the first, 0.243 µM for the second.

“AGGAGUGAUGUUCCUACAUACACGGUCCGACGAGGACCGGUACGGCCGCCACUCGCGUCCCAGUGAUGUUGGGAUUUGGCGUACG [Exclusion Tryptophan A GF 17]” and “UAAUCUAACGAGAGUGAUGUUCUCGUCACAGAGGAUAUACGAUUUAGUAGAAGGCUGUUGGAUUCGCUUAAUGAUGACUAGAUUA [FMN A SS t1]” are within 1.5-fold of each other in “apparent KD of K4 kissing-loop reporter” value: 0.171 µM for the first, 0.232 µM for the second.

Going from “CGUUCAUCCUAGGCGUGAGUGAUGUUUACCCGAGGACCGGUACGGCCGCCACUCGUAUGGCGAGAGUUUAGCCAUUUCCAAUAUA [theeternabot_exclusion_KL_Trp_A_17]” to “UGGAGUUGACGAAAAGUCAACUCCUGGGAAGGAGCGGACGAAAGUCCAGGUAGGUCGCCCACUACCAGUGAUGUUGGUACCUAAA”, the “apparent KD of K4 kissing-loop reporter” value falls from 0.505 µM to 0.307 µM (1.6-fold).

Same assay, conditions: Eterna round: R107; input ligand: tryptophan 2.4 mM

Compared with “CCAGGACGAUGAGGAUGAUGAAUUACUGAAGGAGCGCAUAUGGUUGCAGGUAGGUCGCGGUGAACAAGUAUAGUGAUGUUAUACC [SSArgA.U]”, “AAUAAUUUCAGAGGAUAUGCUUUAUUAUGAUUUUUAAAUAAUAAAUGCAGUGAUGUUGCUUAUUAUGCAGAAGGCUGAUUUAUAA [JR_SSFMNB_Sub015]” is 1.6-fold higher in “apparent KD of K4 kissing-loop reporter” value: 0.348 µM for the first, 0.565 µM for the second.

First: AAUUUAUUAUCUGAUACCAGACUUUAUCUUGUUUAUAAGUCAAGUGAUGUUUGACUAUUAGUCCCUUGGCAGCAGUAUUUUUUAA [JR_Nu_SSTheophyB_Sub025]
Second: AAGCAGUCACUCGAAUCCAUCGAAGAUGGGCGAGGACCGGUACGGCCGCCACUCGGAGUGAUGUUCCAAAGACUGCAAAAUAAAA
The “apparent KD of K4 kissing-loop reporter” value of the first is 1.7-fold higher: 0.23 µM for the first, 0.136 µM for the second.

Compared with “GCUAUCUGAGCCCAGUGAUGUUGAGUGCUGAAGGAUAUGCGAUAGAGCAGAAGGUCAAGAACAUUGUUCGAUUAUCAAAACAAGU [theeternabot_exclusion_KL_FMN_A_35]”, “AACGUUUUGAGAAGGAGCGCGAUAAGCAGUGAUGUUGCUAAAAUUCUAUUUCAAUUUAAUACGCAGGUAGGUCGCUCAAUACGUA [JR_SSArginiB_Sub020]” is 2.8-fold lower in “apparent KD of K4 kissing-loop reporter” value: 0.328 µM for the first, 0.118 µM for the second.

“AAGCAGUCUCUUGUAACCAUCGAAGAUGGACGAGGACCGGUACGGCCGCCACUCGGAGUGAUGUUCCGAAGACUGCAAAAUAAAA [MatMod 15 - Jieux - Exclusion - Tryptophan A]” and “UUUAUAUUGUCGGCCGCCACUGGAUCAAUAUUUGUAUGAUCUAGUUCAAAGUGAUGUUUUGAGUCCAGGACCGGGACAUUUGUUA [JR_ExcTryptoB_Sub005]” are within 1.5-fold of each other in “apparent KD of K4 kissing-loop reporter” value: 1.35 µM for the first, 0.917 µM for the second.

“UUGUAUACUUUUGUGUGCGAUGUGUAGCCGCGAGGACCGGUACGGCCGCCACUCGCUGAGAGUGAUGUUCUCUGGGCUAUAUAUC [Skye_SS_TA3]” and “UGGGUGUAGUGAUGUUAUAUAGAGAGUGAUACCAGUUUAGAGAAGAACCCUUGGCAGCAUAGAAGAGUAUCAUUGGAGAAGAAUG [ExTheophyl.As]” are within 1.5-fold of each other in “apparent KD of K4 kissing-loop reporter” value: 0.234 µM for the first, 0.339 µM for the second.

“GCAUCCUAGUCGGCCGCCACUGACAUGAGUGAUGUUCAUGUUCGUCAGUGAUGUUGACGUUGUUACAGGACCGGGACUAGGAUGC [KL-SSTryp-B8 Brourdwalk4 #Double KL]” and “AGAGUUAUAUGAGGAUAUGGGAUAGUAAAUGAGUGAGUUAUAGUGUAGUUUGUUUAGUGAUGUUAUUUAGAAGGCGUGAGUGAUG [dgnnmullin]” are within 1.5-fold of each other in “apparent KD of K4 kissing-loop reporter” value: 0.119 µM for the first, 0.0864 µM for the second.

“UGUCAUUGGUCGGCCGCCACUAGGACCGGGUAUAGCCUAGUGAUGUUAGUAAGUACGGCCGCCACUAGGACCGGGACCGAUGACU [KL-SSTryp-B21 #DoubleAptamer]” and “UUAGGAGUGGAAGGAUAUCCUGGUGUGGGUGAUGUUAGUGAUGUUGAAAGUGCAGUGAUGUUGUGCGGAGAAGGUCCGGUGUUGA [BDazzled - #8 - Exc. FMN B]” are within 1.5-fold of each other in “apparent KD of K4 kissing-loop reporter” value: 0.131 µM for the first, 0.145 µM for the second.

“AGGAGUGAUGUUCCUACAUACACGGUCCGACGAGGACCGGUACGGCCGCCACUCGCGUCCCAGUGAUGUUGGGAUUUGGCGUACG [Exclusion Tryptophan A GF 17]” and “UAAUCUAACGAGAGUGAUGUUCUCGUCACAGAGGAUAUACGAUUUAGUAGAAGGCUGUUGGAUUCGCUUAAUGAUGACUAGAUUA [FMN A SS t1]” are within 1.5-fold of each other in “apparent KD of K4 kissing-loop reporter” value: 0.154 µM for the first, 0.205 µM for the second.

Compared with “CGUUCAUCCUAGGCGUGAGUGAUGUUUACCCGAGGACCGGUACGGCCGCCACUCGUAUGGCGAGAGUUUAGCCAUUUCCAAUAUA [theeternabot_exclusion_KL_Trp_A_17]”, “UGGAGUUGACGAAAAGUCAACUCCUGGGAAGGAGCGGACGAAAGUCCAGGUAGGUCGCCCACUACCAGUGAUGUUGGUACCUAAA” is 1.9-fold lower in “apparent KD of K4 kissing-loop reporter” value: 0.398 µM for the first, 0.206 µM for the second.
